Measured values as given in patent US20060293221A1.

Legend:
[1] = target: Mucin I: Crude mucin, type II from porcine stomach (Sigma)
[2] = target: Mucin I: Crude mucin, type II from porcine stomach (Sigma); remark: listed apart in the source
[3] = target: Mucin I: Crude mucin, type II from porcine stomach (Sigma); remark: listed apart in the source

viscosity, rheometer, comparison of four TFF2 peptides (7.05 mg in 2 ml 10% mucin I) [1]	Elastic modules G' (Pa) at 1 Hz, oscillatory measurement [2]	viscosity, rheometer, constant rate (stress versus shear rate) [3]	Substance
0.54 Pa s	–	–	non-glycosylated recombinant human Asn99-TFF2 (from UniProt Q03403) (ligand)
0.8 Pa s	17 Pa	10 factor	glycosylated recombinant human Asn99-TFF2 (from UniProt Q03403) (ligand)
